The text below walks through data of a protein production outcome set (Wang et al. 2014).
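Further: failed if final PepcDB status was selected cloned or expressed and not failed if soluble or beyond.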

A short description of this data set: label from the status in PepcDB records.
Regarding “MSHVELQPGFDFQQAGKEVLAIERECLAELDQYINQNFTLACEKMFWCKGKVVVMGMGKSGHIGRKMAATFASTGTPSFFVHPGEAAHGDLGMVTPQDVVIAISNSGESSEITALIPVLKRLHVPLICITGRPESSMARAADVHLCVKVAKEACPLGLAPTSSTTATLVMGDALAVALLKARGFTAEDFALSHPGGALGRKLLLRVNDIMHTGDEIPHVKKTASLRDALLEVTRKNLGMTVICDDNMMIEGIFTDGDLRRVFDMGVDVRQLSIADVMTPGGIRVRPGILAVEALNLMQSRHITSVMVADGDHLLGVLHMHDLLRAGVV”, the protein production entry is “failed”.
The entry for “MSHVLVNVAWPYANGPRHIGHVAGFGVPSDVYARYERMKGNDVLMVSGTDEHGTPILVEAEKEGLTAQELANRYNRVIAKDLCDLGLSYDLFTRTTTGNHEHVVQEMFKQCLENGYIYKGSQQVAISPSTGRTLPDRYIEGECPICHAEGARGDQCDACGNELDPDELINPVSKINGETPRFEQTEHYFLDLPALAEANKAWLETRKGWRTNVINFSLGLFKEVKPRAITRDIDWGIPVPVKGWIDNPNKKLYVWFDAVIGYLSASIEWARRQGDPEKWREWWNDPKCPAYYFMGKDNITFHSQIWPSEMLAYNGKGSKGGETGPMGPLNLPEQVVASEFMTMEGKKFSSSRGIVIYVKDILARYPVDAVRYYISVAGPESSDSDFTWAEFVRHNNEELASSWGNLVNRVANLINKNFGEIPPLDEDSMTNEDRGLLEEASAAFDVVGSSIETHHQKHALSEAMRVVGDINKYISATEPWKIKDDQARLGTVLHVAAQAVSDANHLLAPFLPHSAQKVWEALGGTGTFSPLPELKEVEDLDKPGFTYPIITGDYELGVNVHPWKSEAIEVGAVVPKPAPIFAKIPTEAVEEELARFDEALAARRAAEAERLAAEKAKLAAE” is “failed”.
The entry for “MSHYQCAVCSSIDANPNSLAVNYQCLADSSVVGEFHVLPRHQGYTDLLHGGIASSLLDGAMTHCLLFRDIQALTAQLDVRYHAPIELDEHVTITAHCEGERRGIYQLVAQLLVNNEVRVTAKGKFIRPKLEHHHHHH” is “not failed”; for “MSICPHIQQVFQNEKSKDGVLKTCNAARYILNHSVPKEKFLNTMKCGTCHEINSGATFMCLQCGFCGCWNHSHFLSHSKQIGHIFGINSNNGLLFCFKCEDYIGNIDLINDAILAKYWDDVCTKTMVPSMERRDGLSGLINMGSTCFMSSILQCLIHNPYFIRHSMSQIHSNNCKVRSPDKCFSCALDKIVHELYGALNTKQASSSSTSTNRQTGFIYLLTCAWKINQNLAGYSQQDAHEFWQFIINQIHQSYVLDLPNAKEVSRANNKQCECIVHTVFEGSLESSIVCPGCQNNSKTTIDPFLDLSLDIKDKKKLYECLDSFHKKEQLKDFNYHCGECNSTQDAIKQLGIHKLPSVLVLQLKRFEHLLNGSNRKLDDFIEFPTYLNMKNYCSTKEKDKHSENGKVPDIIYELIGIVSHKGTVNEGHYIAFCKISGGQWFKFNDSMVSSISQEEVLKEQAYLLFYTIRQVN” it is “failed”; for “MSIEIWITIIVFFLTMIVIFWRPRGLNEAWPAAIGAGIILITGLVSKPDVIDIVSKIGGASITILATIVMAVILESFGFFHWSAAKLANLAKGSGRRLYWYIQLLCFLMTLLFNNDGSILITTPILILLLKNLQLKPHQQIPYLLSGALIATASSAPIGESNIVNLIALNIVNMTLYMHTAMMFVPATLGLLFMSWLMYSVLKKKLPKKLPVSSYDIEEIFFTKNFHPLKGNNSVDTKQKRTRFMLKVLGFVFLMRCLLFVASFLSIPIEIVAVLGSLVLLIWRWYYLRTNPVDILKKTPWHILIFAFSMYVIIYGLHNAGLTAALVQWLEPIVNQHLLYASFAMGGLVSILSNVFNNHPALMIGTITLTEMGLDPVTLKTIYLANIIGSDIGSLLLPIGTLASLIWMYILKQNKIKVKWKDYLSVSLIVIPLTTVVTLFLLFYWVHLFFAL” it is “failed”.
The entry for “MSIEMKTQLGTVDVSKDVVATIAGGAAVDCYGIVGMASQKQIKDGLSELLGRENFRRGVVIREEEDEIHIDMYIIVSYGTKISEVAYNVQTKVKYQLETMLGIDVDSVNIFVQGVRVTNPLEHHHHHH” is “failed”; for “MSIFNKDALSSFFGLSGEEDDYYDNYEEYEERKAVNEPPRRAARPKPQRPVQQQESYSQPAYTQQSEPVVEKPSARYRSAEAHQERDTQQAAYTEKKVVSMRSSNQSATTNTRRAQESTANAKTHKITIIEPRVYSEAMSIAKHLFAEEAVLVNFTLVEEDQARRIVDFLTGTVYALDGDIQRVGNEIFLCTPANMEIDSATAQSLANKQFFDFLEHHHHHH” it is “failed”; for “MSIGLSLTFGLYLLVLVGIGVYFFLRTETRRLTDYMLAGRDVGTWPLALSEVASVASGWTFFAWVGVGFTTGLHGLWFSMAMLVVVLFLYRYVAPTFRRQSEALDSQTVVDHLALVFRDSPWGPRIRWTATLAVVVFMASYIGAQIIAVGEAMETGLGLNYAVSVGAGGLAVALYTTLGGFDASVWTDFVQGLLVILAALALPLVAIAEIGGWGAFVTAVRAADPTLLSMTAGQTGTALALSVGSWLAFALGALGQPHGLMRFQAIRSERLLSRASVIALAFQALRLTVPLFIGMAGRVLYGSMNDPESAAMEMMVQLFPDWFAGLLLAGIIGAVLSTSDSMMLVTSADLTRLYETQLAGGVLPARMIRLGRGIVGVMALLGVGLAYWRPGTIFDIIEFAFVGLGATLGLPLAFLVLWPRTTGAGVFAAVAAGLGSAVGNLYLSPATFPILVWPITLTAFLGASYATAPSSPVTASSS” it is “failed”.
For “MSIIAFLSYVIMTSITPGPSNILMMNEAQRFGFTGSWRFSSGILAGFAVLGILSGAFTISLYNWIPVVEPYFKLAGACYLIYLALQVGFTKNKKQDSTEARSSFISGFIFQLINIKSILFFLTVMSAFVLPFNHSLKSTIYYLALAIVLGWLALLLWSGFGSVFKRVFAKHDRVFRVLMCLLLMYSAVSIFR”, the protein production entry is given as “failed”.
In the case of “MSIISLDTRVKVGNTDYALSELFELVDQQTSDYGTSLNALKQAVVSGDLTIIQQVLQNSAAALRSLASLQNTLEKVLTLDLADPAQPEHVFIVEDSRGATELKLYKSHYTIGKADSCDIRLHSIYASRQHATLVRFLTENGEVRYRLIDGDPETSRRSANGTYVNNRSITECDLKHYDQILFGADVKATYFYLSPQFRSLTGLQDPTVSLSPDSTTEFEA” it was “failed”; in that of “MSILDTLKTPVIVAPMAGGPSTPALVNAAAEAGSLGFLAGGVMPLEQLKQELSEVKGVFGVNLFRPQTDAPKPSDIDELAGLLSSAFRQFGLDEPTVPTPDLSNGWEAKFEAVLAAKPAVFSCTFGIFSAEEFARIKATGIEAWVTVTNPEDALAAQKAGANALVVQGPEAGGHRSTWSIEVEPDERDLKTLLAAVKQAGVYLPLIAAGGLSTSADVAAILEAGASAASCGSAFLLSDEAGTSSLNREILDAAPALGLESVSSRAFSGRYARGVETRFTRSNEGLPPLYPYLNPMITSLRKVAGSAGNWDYAYCLVGVGLESIAKGSAKQILESLTPSALG”, “failed”; in that of “MSILVIGANGGVGSKLVSQLNEEHVDFTAGVRKEDQVKELENKGIKATLIDVEKNSINDLKNIFTDYDKVIFSVGSGGSTGADKTIIVDLDGAVKTIKASKEAGIKHYVMVSTYDSRREAFDASGDLKPYTIAKHYADDYLRTSDLNYTIVHPGSLTDDAGTGKIEADLYFDKAGSIPREDVATVLKEVVTSDGFNNQEFQILSGNHGVKDALKNYESLEHHHHHH”, “not failed”.
In the case of “MSINTKENIDAIFEKLESFLKSKTVIGEPIKIGETTIIPFIDITFGLGTGGGGGKDEKGNDGTGSGAGAGAKISATAVLVIKGEQVELLPIKKAGGLEKLLDMVPELEHHHHHH” it was “not failed”; in that of “MSIRIKLPDGSVREFEEEASIEDVAASISCGLEHAVAGKLNGKLVDLSTPLQDGALVEIVTRDSAEGQKIVREKSRGKGRIVALDAARGLAVIGMYLQHFALNETNGSIVSGNTTLLFVLCGGISYSIMAGRMMDRGMEPAAFRTRMLARAVFIDMIGYLLIMLNTPFGVILPAYAALFVLALVLIRRSTRVLVTTAAVLLAVSPPLMILGGSVLSGANLLGDIAGGPMSALALAPAFVAGMAIGRFDLTRMRTALSLVSSGAVMLIVSKLLGVFVLPWLSRSFEEWLVSVQGTAGAEPDQYAIWPHNVAPPLWHNLLSIAPHSASTFQTMLGLGAAFLVLGMVCLVPQKISAVLKPFAGVGRVALTMYAAQFVVIWALEISGAKYDIGAIPFGDLFVAAVATVTGWLIARLPTGPLETAMRRFDRAFSNLGPVTGPARLR”, “failed”.
